Test results: PMC7584586

Assays:
[1] = molecular target: TfiA, yeast two-hybrid fusion (Helicobacter pylori); assay: two-hybrid; pGBT9 bait and pGAD424 prey in S. cerevisiae PJ69-4A; lacZ reporter, β-galactosidase activity in cell extracts with ONPG
[2] = molecular target: TfiT, yeast two-hybrid fusion (Helicobacter pylori); assay: as above

## TfiA, yeast two-hybrid fusion (natural protein)
[1]
  lacZ fold increase relative to the self-activation control of the bait vector: 27.4 fold
  lacZ reporter activity (Miller units): 129 Miller units
[2]
  lacZ fold increase relative to the self-activation control of the bait vector: 47.2 fold
  lacZ reporter activity (Miller units): 89.8 Miller units

## TfiT, yeast two-hybrid fusion (enzyme)
[1]
  lacZ fold increase relative to the self-activation control of the bait vector: 12.9 fold
  lacZ reporter activity (Miller units): 60.8 Miller units
